“And” between values parts separate entries of the source, which are not always exact repeats. Equal entries are not always repeated. Where two headings read alike, the source gives them in different places.
Experiments:
[1] = Pharmacokinetic study after intravenous administration to SD rats; conditions: n=6; for Cmax of free SN38: free SN38 in plasma, intravenous 10 mg/kg (equivalent to SN38); for AUC0–24 of prodrug / Cmax of prodrug: prodrug form in plasma (equivalent to SN38); for AUC0–24 of prodrug / Cmax of prodrug / CL of prodrug / MRT0–24 of prodrug / T1/2 of prodrug: intravenous 10 mg/kg; for CL of prodrug / MRT0–24 of prodrug / T1/2 of prodrug: prodrug form in plasma
[2] = test system: CT26 tumor xenograft; type: in vivo, BALB/c mice; conditions: for Body weight Final / Body weight Initial / IRT (inhibition ratio of the tumor) / Tumor weight Mean ± SD: n=8; for Histological section examination of tumor (H&E): day 14
[3] = test system: murine colon adenocarcinoma cell line CT26; assay: In vitro cytotoxicity; type: cell-based; conditions: for fold more potent than CPT-11: ratio of IC50 values
[4] = Critical micelle concentration; type: physicochemical; conditions: aqueous medium, coumarin-6 probe
[5] = Drug-loading measurement; type: physicochemical; conditions: weight of SN38 / weight of prodrug, HPLC with UV detector, triplicate
[6] = Particle size and zeta potential of micelles; type: physicochemical; conditions: 25°C, n=3
[7] = In vitro drug release by dialysis; type: physicochemical; conditions: by 48 hours, 37°C, pH 6.5 PBS, pH 7.4 PBS, 25% liver homogenate, 50% plasma; P<0.05
[8] = 1.25 mg/kg (equivalent to SN38) i.v. every 2 days for 2 weeks
[9] = 2.5 mg/kg (equivalent to SN38) i.v. every 2 days for 2 weeks
[10] = CT26 cells, 48 hours incubation, MTT, equivalent to SN38, mean ± SD, n=3

Compound	Cmax of free SN38 [1]	AUC0–24 of prodrug [1]	Cmax of prodrug [1]	CL of prodrug [1] [L/h/kg]	MRT0–24 of prodrug [1] [h]	T1/2 of prodrug [1] [h]	Body weight Final [2, 8] [g]	Body weight Initial [2, 8] [g]	IRT (inhibition ratio of the tumor) [2, 8] [%]	Tumor weight Mean ± SD [2, 8] [g]	Histological section examination of tumor (H&E) ([2]; 1.25 mg/kg)	Body weight Final [2, 9] [g]	Body weight Initial [2, 9] [g]	IRT (inhibition ratio of the tumor) [2, 9]	Tumor weight Mean ± SD [2, 9] [g]	Histological section examination of tumor (H&E) ([2]; 2.5 mg/kg)	IC50 [3, 10] [µM]	fold more potent than CPT-11 ([3]; CT26 cells) [fold]	CMC (critical micelle concentration) [4] [µg/mL]	drug loading [5]	other results
chitosan-(C10-OH)SN38 [CS-(10s)SN38]	3,057.78±637.61 μg/L	89.84±8.01 ×10^3 μg⋅h/L	46.89±6.56 ×10^3 μg/L	0.11 ± 0.01	4.90 ± 0.66	5.40 ± 1.29	24.6 ± 1.24	20.0 ± 1.73	27.7	2.37 ± 0.19	Partial tumor tissue necrosis	22.7 ± 1.96	20.4 ± 2.11	47.8 ^a, ^b %	1.71 ± 0.21	extensive tissue necrosis	3.5	13.3	15	16.5%±0.7%	mean particle size [6]: 128.0±1.8 nm; mean zeta potential [6]: 21.1±0.5 mV
chitosan-(C20-OH)SN38 [CS-(20s)SN38]	2,489.43±153.63 μg/L	133.07±11.10 ×10^3 μg⋅h/L	48.43±4.27 ×10^3 μg/L	0.07 ± 0.01	4.94 ± 1.58	7.05 ± 2.04	24.1 ± 1.31	20.6 ± 1.31	31	2.24 ± 0.27	Partial tumor tissue necrosis	21.5 ± 2.52	19.6 ± 1.57	64.7% and 64.7 ^a, ^c, ^d %	1.15 ± 0.09	extensive tissue necrosis	1.8	25.9	12	17.4%±0.8%	drug release compared with CS-(10s)SN38 [7]: slower drug release; mean particle size [6]: 122.4±1.1 nm; mean zeta potential [6]: 22.3±0.4 mV
CCc1c2c(nc3ccc(O)cc13)-c1cc3c(c(=O)n1C2)COC(=O)[C@]3(O)CC [SN38, 7-Ethyl-10-hydroxycamptothecin, reference compound]																					IC50 ([3]; Mus musculus, CT26, 48 h): 0.0204 ± 0.0018 µM
CCc1c2c(nc3ccc(OC(=O)N4CCC(N5CCCCC5)CC4)cc13)-c1cc3c(c(=O)n1C2)COC(=O)[C@]3(O)CC [CPT-11, irinotecan, reference compound]												23.6 ± 1.67	19.8 ± 1.73	23.5%	2.51 ± 0.36	Partial tumor tissue necrosis					IC50 ([3]; Mus musculus, CT26, 48 h): 46.7 µM

— PMC4376263 (International Journal of Nanomedicine, 2015)
